Assay results taken from publication PMC2532732.

Key:
Experiment in all cases: EMSA
[1] = biological target: T1, p73 DBD (UniProt O15350 104-333)
T1 sequence: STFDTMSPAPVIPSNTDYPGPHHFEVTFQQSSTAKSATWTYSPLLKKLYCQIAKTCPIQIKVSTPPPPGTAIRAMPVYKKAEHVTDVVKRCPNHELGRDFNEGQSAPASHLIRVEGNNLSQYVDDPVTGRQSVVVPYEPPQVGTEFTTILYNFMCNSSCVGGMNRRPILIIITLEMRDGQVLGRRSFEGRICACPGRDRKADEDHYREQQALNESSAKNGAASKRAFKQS

[2] = biological target: T2, p63 DBD (UniProt Q9H3D4 154-365)
T2 sequence: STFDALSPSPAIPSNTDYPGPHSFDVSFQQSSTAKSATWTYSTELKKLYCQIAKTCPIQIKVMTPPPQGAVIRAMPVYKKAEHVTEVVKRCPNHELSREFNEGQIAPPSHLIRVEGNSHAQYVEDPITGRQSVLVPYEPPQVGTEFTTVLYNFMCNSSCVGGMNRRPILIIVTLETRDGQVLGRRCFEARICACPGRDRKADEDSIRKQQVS

[3] = biological target: p53 DBD (UniProt P04637 94-312)

Measured: binding result

Sequence of p53 DBD (P04637 94-312): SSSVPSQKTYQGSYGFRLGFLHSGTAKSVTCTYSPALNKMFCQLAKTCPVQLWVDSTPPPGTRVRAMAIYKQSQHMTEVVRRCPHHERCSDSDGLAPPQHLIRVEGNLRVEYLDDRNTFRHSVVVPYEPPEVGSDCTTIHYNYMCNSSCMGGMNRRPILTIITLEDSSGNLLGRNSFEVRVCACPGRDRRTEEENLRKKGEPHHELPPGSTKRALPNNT

B1: Bax promoter 30-mer (dsDNA)
DNA 1: GGGCTCACAAGTTAGAGACAAGCCTGGGCG
DNA 2: CGCCCAGGCTTGTCTCTAACTTGTGAGCCC
binds: [1] | [2] | [3]

B2: PUMA promoter 30-mer (dsDNA)
DNA 1: CGCGCCTGCAAGTCCTGACTTGTCCGCGGC
DNA 2: GCCGCGGACAAGTCAGGACTTGCAGGCGCG
binds: [1] | [2] | [3]
